Test results: US20240350646A1, “METHODS AND COMPOSITIONS FOR DELIVERY TO AND ACROSS THE BLOOD BRAIN BARRIER” (NUtech Ventures, priority 2021, published 2024)

Key:
human claudin-9 = molecular target: T1, human claudin-9 (human, UniProt O95484 1-217, limits assumed); test: MST, sigmoidal dose-response fit (GraphPad Prism) of the FIG. 10A data; fit did not converge [panel B]
T1 sequence (looked up): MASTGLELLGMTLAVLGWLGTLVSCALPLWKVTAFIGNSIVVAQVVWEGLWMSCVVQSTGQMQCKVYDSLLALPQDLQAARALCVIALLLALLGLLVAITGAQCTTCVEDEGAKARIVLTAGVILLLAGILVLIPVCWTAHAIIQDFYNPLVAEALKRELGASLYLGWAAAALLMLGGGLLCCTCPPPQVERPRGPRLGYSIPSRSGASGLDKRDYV
Description: (§1) FIG. 10C is a graph showing the binding of human claudins 4 and 9 to control NPs monitored using microscale thermophoresis. […] Data fitting for human claudins 3, 4 and 9 were performed using Graph Pad Prism.
Human claudin-1 was expressed and purified as reported previously (Vecchio & Stroud, 2019, PNAS USA, 116:17817-24). MST measurements were performed using a Monolith instrument (NanoTemper Technologies). For experiments with human claudin-1, the assay buffer contained 10 mM Tris HCl, pH 8.0, 100 mM NaCl, 4% glycerol, and 0.04% n-Dodecyl-β-D-Maltopyranoside (β-DDM). NPs and peptides were labeled with AF647 prior to MST analysis as described above. For the binding experiments, the concentration of human claudin-1 was varied from 2.2-73,500 nM and the AF647-labeled C1C2-NP was fixed at 70 nM, while the AF647 labeled NPs and AF647 labeled C1C2 peptide were fixed at 1 and 0.3 μM, respectively. Binding of the AF647 labeled C1C2-NP to human claudin-3, -4, and -9 were tested using 0.4-14000 nM, 0.8-28000 nM, and 0.6-20000 nM, respectively; with the AF647 labeled C1C2-NP fixed at 70 nM. […] All experiments were conducted at 23° C. using the nano-red channel of the Monolith instrument and the data were analyzed by using either Monolith analysis software or Graph Pad Prism, version 9 (Graph Pad Software, San Diego, California).

human claudin-3 [1] = molecular target: T2, human claudin-3 (human, UniProt O15551 1-220, limits assumed); test: MST, sigmoidal dose-response fit (GraphPad Prism) of the FIG. 10A data, M is the unit of the concentration axis of panel A; fit without amplitude, confidence interval undefined [panel B]
T2 sequence (looked up): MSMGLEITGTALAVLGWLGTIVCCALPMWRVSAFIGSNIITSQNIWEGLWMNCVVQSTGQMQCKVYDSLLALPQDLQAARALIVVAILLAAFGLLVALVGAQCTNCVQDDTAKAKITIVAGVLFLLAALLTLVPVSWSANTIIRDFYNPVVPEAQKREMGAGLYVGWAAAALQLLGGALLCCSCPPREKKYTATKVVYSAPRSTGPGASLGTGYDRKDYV
Description: as §1, with “FIG. 10A is a graph showing binding of human claudins 3, 4 and 9 to C1C2-NPs using microscale thermophoresis. […] FIG.” for “FIG.”
(§2) Human claudin-1 was expressed and purified as reported previously (Vecchio & Stroud, 2019, PNAS USA, 116:17817-24). MST measurements were performed using a Monolith instrument (NanoTemper Technologies). For experiments with human claudin-1, the assay buffer contained 10 mM Tris HCl, pH 8.0, 100 mM NaCl, 4% glycerol, and 0.04% n-Dodecyl-β-D-Maltopyranoside (β-DDM). NPs and peptides were labeled with AF647 prior to MST analysis as described above. For the binding experiments, the concentration of human claudin-1 was varied from 2.2-73,500 nM and the AF647-labeled C1C2-NP was fixed at 70 nM, while the AF647 labeled NPs and AF647 labeled C1C2 peptide were fixed at 1 and 0.3 μM, respectively. Binding of the AF647 labeled C1C2-NP to human claudin-3, -4, and -9 were tested using 0.4-14000 nM, 0.8-28000 nM, and 0.6-20000 nM, respectively; with the AF647 labeled C1C2-NP fixed at 70 nM. This assay buffer was similar, except β-DDM was replaced with 0.1% n-Undecyl-β-D-Maltopyranoside (beta-UDM).

human claudin-3 [2] = molecular target: T2, human claudin-3; test: MST, sigmoidal dose-response fit (GraphPad Prism) of the FIG. 10A data; fit without amplitude, confidence interval undefined [panel B]
Description: as §1, with “FIG. 10A is a graph showing binding of human claudins 3, 4 and 9 to C1C2-NPs using microscale thermophoresis. […] FIG.” for “FIG.”
as §2

B1: C1C2-NP (C1C2 peptide conjugated to PEG diacid coated ultrasmall Gd nanoparticles) (peptide)
peptide: Ac-SSVSQSTGQIQSKVDSLLNLNSTQATR-NH2
modifications: not fully specified; also: conjugated by EDC-NHS chemistry to PEG diacid on Gd oxide nanoparticle surface (19 peptides per 3.5 nm particle)
notes: The protein part is the C1C2 peptide; the core is not a protein; also called C1C2-NPs; C1C2 NPs
Work on B1 yielded a LogEC50 (human claudin-9) of -0.661, an EC50 (human claudin-3 [1]) of 0.0881 µM and a LogEC50 (human claudin-3 [2]) of -7.05.
